Measurements: patent publication US20050064507A1, “Determining kinase specificity” (priority 2003, published 2005)

The substances below were run against T1, PKC-delta (Homo sapiens, UniProt Q05655) (assay: In vitro kinase assay: peptide phosphorylation by PKC-delta). Details: PKC-delta.
T1 construct: purchased Calbiochem
T1 sequence (Q05655 whole entry): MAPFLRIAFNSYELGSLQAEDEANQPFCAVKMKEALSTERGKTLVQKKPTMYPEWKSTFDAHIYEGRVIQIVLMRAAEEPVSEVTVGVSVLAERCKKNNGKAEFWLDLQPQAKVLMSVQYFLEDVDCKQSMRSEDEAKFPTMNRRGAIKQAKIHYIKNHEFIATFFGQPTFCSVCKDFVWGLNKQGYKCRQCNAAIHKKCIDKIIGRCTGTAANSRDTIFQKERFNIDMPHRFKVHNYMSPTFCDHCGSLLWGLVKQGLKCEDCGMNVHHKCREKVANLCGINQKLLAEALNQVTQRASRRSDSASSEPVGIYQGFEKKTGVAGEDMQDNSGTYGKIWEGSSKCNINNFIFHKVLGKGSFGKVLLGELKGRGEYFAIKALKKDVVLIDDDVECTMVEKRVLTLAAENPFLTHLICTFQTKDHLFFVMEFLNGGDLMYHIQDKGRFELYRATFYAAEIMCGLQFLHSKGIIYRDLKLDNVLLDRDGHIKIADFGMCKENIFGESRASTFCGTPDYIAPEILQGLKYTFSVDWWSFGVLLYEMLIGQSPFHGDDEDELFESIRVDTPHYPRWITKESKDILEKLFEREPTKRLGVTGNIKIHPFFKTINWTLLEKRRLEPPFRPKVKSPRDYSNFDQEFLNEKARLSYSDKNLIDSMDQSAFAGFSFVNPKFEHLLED
Type: biochemical
Excerpt: One approach to validating a substrate identification method can involve, for example, comparison of substrate sites predicted by the method with in vitro phosphorylation results obtained using the selected kinase and peptides of known sequences. Such a systematic validation has been performed for the methods described herein. For example, a panel of seventy five peptides was synthesized, the phosphorylation observed for each peptide was experimentally measured, the amount of phosphorylation was quantified, the phosphorylation results for each peptide were normalized to the phosphorylation observed with the best substrate tested and these amounts were compared with predictions made according to the invention and according to the procedures provided by others. These peptides are referred to herein as proteomic peptides because their sequences are chosen from proteins in the human proteome; unlike the test sets employed herein, these peptides include no degenerate positions
Table 2 compares the present predictions with actual measurements of phosphorylation on validating peptides. The method of synthesis of the validating peptides was as described elsewhere in the application, and each included an N-terminal linker sequence of biotinylated-Lys-dansylated-Lys-Pro-Pro-Gly (SEQ ID NO:231). The length of the remaining “core” of the validating peptides ranged from 12-21 residues with one to five S/T residues. In vitro phosphorylation of these validating peptides was measured in the manner described herein. […] In vitro phosphorylation results for the validating peptides were expressed as normalized values, namely as a percentage of phosphorylation of the best validating peptide substrate in the group.
The conditions of the kinase assay and the amount of active kinase used varied with the kinase and with the accuracy needed. For a typical experiment, 5-20 ng of kinase was used per well and each peptide pool was assayed in duplicate wells. Note that the absolute amount of kinase used was not usually a critical parameter, because the desired information related to specificity of the kinase not its absolute activity, and robustness of the assay depends on comparisons of the same amount of kinase on different peptides. The combination of kinase concentration and assay duration was modified to assure that the stoichiometry of peptide phosphorylation never exceeded 5%. The choice of kinase buffer depended on the kinase being analyzed. For studies of PKC, 100 mM HEPES, 0.05% Triton-X100, 1 mM CaCl2, 20 mM MgCl2, 0.2 mg/ml phosphatidyl serine (Avanti Polar Lipids), PMA 100 ng/ml was typically used. The lipid stock was prepared by transferring 3 mg phosphatidyl serine into iced mixture of 450 μl water plus 50 μl of 10% Triton-X100, sonicating 10 times on ice for 1 sec each.
The kinase reaction mixture was assembled by sequential addition to a tube held on ice of: 5 μl peptide (100 μM for final concentration of 10 μM), 15 μl of kinase (typically 5 ng/well, in appropriate kinase buffer), 30 μl of ATP (1 uCi/well of ^32P-gamma ATP in a stock of 167 μM cold ATP in the kinase buffer; for final concentration for 100 μM ATP). The mixture was rapidly warmed to desired reaction temperature (30° C. for PKC) and incubated for the desired duration (usually 10 minutes). The kinase assay was terminated by transfer to 4° C. water batch, and rapid addition of an equal volume (50 μl) of stop solution [0.1M ATP+0.1M EDTA in water, pH 8].
The peptides were then captured from the reaction mixture by transfer to a Reacti-Bind Streptavidin High Binding Capacity Coated Plates (HBC) (Pierce Biotechnology) as follows. The HBC plates were pre-rinsed three times with PBS/Tween PBS/Tween20 0.05% (PBS/Tween). […]
For 60 (LRRKHLGTLNFGGIR) [compound 60], the “phosphorylation in the in vitro validating assay” value was “poorly phosphorylated”. With 69 (LALTARESSVRSGGAG) [compound 69] the “phosphorylation in the in vitro validating assay” value was “poorly phosphorylated”. For 9 (QKKSRLRRRASQLKI) [compound 9], the “phosphorylation in the in vitro validating assay” value was “highly phosphorylated”. 4 (KFARKSTRRSIRLPE) [compound 4] was tested, and the “phosphorylation in the in vitro validating assay” value was “highly phosphorylated”. With 66 (GFAKKIGSGQKTWTF) [compound 66] the “phosphorylation in the in vitro validating assay” value was “poorly phosphorylated”. 11 (KKKFRTPSFLKKSKK) [compound 11] was tested, and the “phosphorylation in the in vitro validating assay” value was “highly phosphorylated”. 7 (RKIPKRPGSVHRTPSRQ) [compound 7] was tested, and the “phosphorylation in the in vitro validating assay” value was “highly phosphorylated”. For 64 (ALRAPKPTLRYFTTERF) [compound 64], the “phosphorylation in the in vitro validating assay” value was “poorly phosphorylated”.

Same assay, conditions: peptide concentration of 10 nM; percentage of phosphorylation of the best validating peptide substrate
With 29 (RKNDRKKRYTVVGNP) [compound 29] the “Measured in vitro phosphorylation by PKC-delta” value (from here on “Measured … by PKC-delta”) was 8%. 12 (KKKKKRFSFKKSFKL) [compound 12] was tested, and the “Measured … by PKC-delta” value was 24%. With 35 (GLLDRKGSWKKLDDM) [compound 35] the “Measured … by PKC-delta” value was 4%. In the case of 13 (WKGKRRSKARKKRK) [compound 13], the “Measured … by PKC-delta” value is reported as 22%. 60 (LRRKHLGTLNFGGIR) [compound 60] was tested, and the “Measured … by PKC-delta” value was 1%. For 6 (PRLIRRGSKKRPAR) [compound 6], the “Measured … by PKC-delta” value was 40%. In the case of 50 (ENLRRVATDRRHLGH) [compound 50], the “Measured … by PKC-delta” value is reported as 2%. 62 (AVRDMRQTVAVGVIK) [compound 62] was tested, and the “Measured … by PKC-delta” value was 1%. 46 (GQAWGRQSPRRLED) [compound 46] was tested, and the “Measured … by PKC-delta” value was 2%. For 21 (KLAVGRHSFSRRSGV) [compound 21], the “Measured … by PKC-delta” value was 12%. 16 (DGQKRKKSLRKKLD) [compound 16] was tested, and the “Measured … by PKC-delta” value was 17%. For 43 (AWVTVHEKKSSRKSEYL) [compound 43], the “Measured … by PKC-delta” value was 3%. With 57 (KNVVKLLSSRRTQDR) [compound 57] the “Measured … by PKC-delta” value was 2%. In the case of 69 (LALTARESSVRSGGAG) [compound 69], the “Measured … by PKC-delta” value is reported as 1%. For 61 (VDNILKKSNKKLEEL) [compound 61], the “Measured … by PKC-delta” value was 1%. For 14 (EYLERRASRRRAV) [compound 14], the “Measured … by PKC-delta” value was 20%. In the case of 58 (RVKLGTLRRPEGP) [compound 58], the “Measured … by PKC-delta” value is reported as 1%. For 9 (QKKSRLRRRASQLKI) [compound 9], the “Measured … by PKC-delta” value was 34%. In the case of 67 (AINSRETMFHKERFK) [compound 67], the “Measured … by PKC-delta” value is reported as 1%. In the case of 36 (GENVLKKSMKSRVKG) [compound 36], the “Measured … by PKC-delta” value is reported as 4%. In the case of 71 (RRRQKRRTGALVLSRGGKR) [compound 71], the “Measured … by PKC-delta” value is reported as 1%. With 27 (KKRKKKSSKSLAHA) [compound 27] the “Measured … by PKC-delta” value was 8%. In the case of 18 (KKRFSFKKSFKLSGFSFKKN) [compound 18], the “Measured … by PKC-delta” value is reported as 16%. For 42 (QPEGLRSLKKPDRKKR) [compound 42], the “Measured … by PKC-delta” value was 3%. 53 (AKNLKTLQKRDSFIG) [compound 53] was tested, and the “Measured … by PKC-delta” value was 2%. With 63 (QRQERIFSKRRGQDF) [compound 63] the “Measured … by PKC-delta” value was 1%. With 31 (RKKRKKKSSKSLAHAGVALA) [compound 31] the “Measured … by PKC-delta” value was >5%. In the case of 22 (LLKKRDSFRTPRDSKLE) [compound 22], the “Measured … by PKC-delta” value is reported as 12%. With 39 (LLGSGKVTDRKAL) [compound 39] the “Measured … by PKC-delta” value was 3%. For 34 (EGGDRRASGRRK) [compound 34], the “Measured … by PKC-delta” value was 5%. With 59 (PVNKRSKYTMMK) [compound 59] the “Measured … by PKC-delta” value was 1%. In the case of 38 (NYLRRRLSDSNFMAN) [compound 38], the “Measured … by PKC-delta” value is reported as 3%. For 30 (KEVVRTDSLKGRRGR) [compound 30], the “Measured … by PKC-delta” value was 7%. For 4 (KFARKSTRRSIRLPE) [compound 4], the “Measured … by PKC-delta” value was 52%. For 8 (AARKKRISVKKKQEQ) [compound 8], the “Measured … by PKC-delta” value was 35%. With 19 (AGSFKRNSIKKIV) [compound 19] the “Measured … by PKC-delta” value was 14%. 66 (GFAKKIGSGQKTWTF) [compound 66] was tested, and the “Measured … by PKC-delta” value was 1%. For 26 (ALRRPSLRREADD) [compound 26], the “Measured … by PKC-delta” value was 9%. In the case of 37 (AYIERMNSIHRDLRA) [compound 37], the “Measured … by PKC-delta” value is reported as 3%. For 25 (EILSRRPSYRKILND) [compound 25], the “Measured … by PKC-delta” value was 9%. For “72 (LTDPKEDPIYDEPEGLAPVPG) [compound 72]”, the “Measured … by PKC-delta” value was 0%. 47 (ARIIGEKSFRRSVVG) [compound 47] was tested, and the “Measured … by PKC-delta” value was 2%. In the case of 48 (AVNSRRRAGQKKK) [compound 48], the “Measured … by PKC-delta” value is reported as 2%. In the case of 55 (DDMEHKTLKITDFG) [compound 55], the “Measured … by PKC-delta” value is reported as 2%. 23 (QKRHARVTVKYDRRE) [compound 23] was tested, and the “Measured … by PKC-delta” value was 10%. With 2 (KKKKRASFKRKSSKKG) [compound 2] the “Measured … by PKC-delta” value was 76%. With 45 (VFREHQRSGSYHVRE) [compound 45] the “Measured … by PKC-delta” value was 2%. With 51 (DLLGKKVSTKTLSEDD) [compound 51] the “Measured … by PKC-delta” value was 2%. For 28 (KRPGKKGSNKRPGKR) [compound 28], the “Measured … by PKC-delta” value was 8%. For 74 (IDYYKKTSNGRLPVK) [compound 74], the “Measured … by PKC-delta” value was 0%. With 40 (NMEAKKLSKDRMKKY) [compound 40] the “Measured … by PKC-delta” value was 3%. In the case of 32 (KATTKKRTLRKNDRK) [compound 32], the “Measured … by PKC-delta” value is reported as >5%. With 11 (KKKFRTPSFLKKSKK) [compound 11] the “Measured … by PKC-delta” value was 25%. For 5 (RQRKRKLSFRRRTDKD) [compound 5], the “Measured … by PKC-delta” value was 42%. In the case of 56 (EARLGAASLKFGARD) [compound 56], the “Measured … by PKC-delta” value is reported as 2%. In the case of 24 (EKIKRSSLKKVDSLKK) [compound 24], the “Measured … by PKC-delta” value is reported as 10%. In the case of 73 (IDYYKKTTNGRLPVK) [compound 73], the “Measured … by PKC-delta” value is reported as 0%. With 44 (VLAKKGTSKTPVPE) [compound 44] the “Measured … by PKC-delta” value was 2%. 7 (RKIPKRPGSVHRTPSRQ) [compound 7] was tested, and the “Measured … by PKC-delta” value was 38%. In the case of 49 (VQQLLRSSNRRLEQL) [compound 49], the “Measured … by PKC-delta” value is reported as 2%. 54 (ENLRKVTTDKKSLAY) [compound 54] was tested, and the “Measured … by PKC-delta” value was 2%. 3 (NRKKKRTSFKRKA) [compound 3] was tested, and the “Measured … by PKC-delta” value was 66%. 1 (HVRRRRGTFKRSKLRARD) [compound 1] was tested, and the “Measured … by PKC-delta” value was 100%. With 10 (AQIVKRASLKRGKQ) [compound 10] the “Measured … by PKC-delta” value was 32%. 15 (RGFLRSASLGRRASFHLE) [compound 15] was tested, and the “Measured … by PKC-delta” value was 18%. In the case of 65 (IKVTHKATGKVMVMK) [compound 65], the “Measured … by PKC-delta” value is reported as 1%. In the case of 52 (HKHSPEKRGSERKEG) [compound 52], the “Measured … by PKC-delta” value is reported as 2%. For 17 (AGWRKKTSFRKPKED) [compound 17], the “Measured … by PKC-delta” value was 17%. 20 (GAPPRRSSIRNAH) [compound 20] was tested, and the “Measured … by PKC-delta” value was 13%. 68 (RGEGHKPSIAHRDFK) [compound 68] was tested, and the “Measured … by PKC-delta” value was 1%. In the case of 64 (ALRAPKPTLRYFTTERF) [compound 64], the “Measured … by PKC-delta” value is reported as 1%. In the case of 70 (HERKGSDKRGDNQ) [compound 70], the “Measured … by PKC-delta” value is reported as 1%. In the case of 41 (FVHQASFKFGQGD) [compound 41], the “Measured … by PKC-delta” value is reported as 3%.
